Experimental data reported in patent US20100310509A1.

Biological target: OSMR:gp130 receptor complex on A375 melanoma cells (UniProt Q99650)
Assay: cell-based or functional assay

Chain of OSMR:gp130 receptor complex on A375 melanoma cells (Q99650 28-979 limits assumed, chain 1 of 2): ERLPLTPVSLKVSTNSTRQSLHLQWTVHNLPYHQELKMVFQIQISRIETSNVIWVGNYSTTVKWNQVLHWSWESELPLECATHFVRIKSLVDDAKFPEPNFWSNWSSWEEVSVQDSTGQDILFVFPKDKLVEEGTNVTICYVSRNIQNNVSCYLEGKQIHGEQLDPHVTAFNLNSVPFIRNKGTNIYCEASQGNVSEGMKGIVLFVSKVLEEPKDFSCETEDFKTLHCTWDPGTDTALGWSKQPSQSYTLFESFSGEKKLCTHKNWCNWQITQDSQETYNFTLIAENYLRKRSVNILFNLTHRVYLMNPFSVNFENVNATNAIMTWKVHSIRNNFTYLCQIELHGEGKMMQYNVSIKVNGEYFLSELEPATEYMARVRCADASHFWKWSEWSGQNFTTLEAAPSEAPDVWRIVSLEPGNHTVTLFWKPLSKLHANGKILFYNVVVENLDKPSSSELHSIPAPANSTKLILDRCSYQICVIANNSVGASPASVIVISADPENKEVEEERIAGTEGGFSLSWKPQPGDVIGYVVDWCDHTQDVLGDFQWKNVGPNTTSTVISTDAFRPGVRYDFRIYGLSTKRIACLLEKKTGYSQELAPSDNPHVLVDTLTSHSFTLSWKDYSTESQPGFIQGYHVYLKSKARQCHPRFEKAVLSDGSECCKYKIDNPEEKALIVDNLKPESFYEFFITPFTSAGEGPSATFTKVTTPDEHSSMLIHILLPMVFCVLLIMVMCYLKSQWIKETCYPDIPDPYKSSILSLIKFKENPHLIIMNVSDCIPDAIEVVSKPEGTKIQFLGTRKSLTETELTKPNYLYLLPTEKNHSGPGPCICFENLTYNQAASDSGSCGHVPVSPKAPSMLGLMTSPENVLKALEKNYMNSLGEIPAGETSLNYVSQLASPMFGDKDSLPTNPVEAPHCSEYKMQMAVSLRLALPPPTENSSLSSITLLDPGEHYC
Chain of OSMR:gp130 receptor complex on A375 melanoma cells (P40189 23-918 limits assumed, chain 2 of 2, further chain): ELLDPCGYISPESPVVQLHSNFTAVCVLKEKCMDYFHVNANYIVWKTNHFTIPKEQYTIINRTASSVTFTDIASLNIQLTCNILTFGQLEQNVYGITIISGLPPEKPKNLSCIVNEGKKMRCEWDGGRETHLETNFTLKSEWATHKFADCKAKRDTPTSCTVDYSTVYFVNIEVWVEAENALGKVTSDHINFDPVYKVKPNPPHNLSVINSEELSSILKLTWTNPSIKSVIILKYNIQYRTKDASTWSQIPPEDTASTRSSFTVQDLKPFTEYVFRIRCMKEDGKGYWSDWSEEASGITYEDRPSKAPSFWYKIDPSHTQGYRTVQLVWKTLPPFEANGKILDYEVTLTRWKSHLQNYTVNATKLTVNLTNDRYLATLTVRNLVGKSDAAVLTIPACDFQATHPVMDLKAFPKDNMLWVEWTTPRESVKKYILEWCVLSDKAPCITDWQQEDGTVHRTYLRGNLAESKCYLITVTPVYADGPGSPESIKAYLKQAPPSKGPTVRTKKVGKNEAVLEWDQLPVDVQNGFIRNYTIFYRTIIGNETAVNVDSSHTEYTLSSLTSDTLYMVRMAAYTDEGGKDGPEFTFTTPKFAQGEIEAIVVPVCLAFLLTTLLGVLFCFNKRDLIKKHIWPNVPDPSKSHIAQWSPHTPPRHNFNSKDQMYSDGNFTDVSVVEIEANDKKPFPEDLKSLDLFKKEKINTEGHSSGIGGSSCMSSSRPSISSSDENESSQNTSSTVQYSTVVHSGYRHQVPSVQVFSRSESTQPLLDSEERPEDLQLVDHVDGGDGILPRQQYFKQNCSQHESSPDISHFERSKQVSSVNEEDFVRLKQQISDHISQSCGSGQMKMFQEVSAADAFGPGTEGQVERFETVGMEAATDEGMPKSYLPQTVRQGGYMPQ

OSM-WT ('AGA' modified human Oncostatin M, referred to as wild-type OSM) (from UniProt P13725 26-217) (ligand)
concentration that suppresses A375 melanoma cell proliferation by ~50%: 20 ng/mL | concentration that suppresses A375 melanoma cell proliferation by ~90%: 50 ng/mL
